Consider 1 substance from patent US20050214871A1.

In this assay the target is ligands present on the membranes of early apoptotic cells. The experiment in a line: flow cytometry on anti-CD95-treated Jurkat E6-1 cells, streptavidin-PE detection. On the technique in general: A flow cytometer gives signals particle by particle.

With “human soluble CD163, biotinylated (sCD163-biotin) (from UniProt Q86VB7 42-1045)”, the percent of early apoptotic Jurkat E6-1 cells binding sCD163-biotin was more than 50%.
